Assay results as given in patent publication US20250092135A1 (NANJING LEADS BIOLABS, published 2025).

Molecular target: T1, Rhesus monkey MUC16-His (rhesus monkey)
T1 construct: The entry includes the C-terminal 6xHis tag; also called membrane-proximal end of the extracellular region of the rhesus monkey MUC16 protein
T1 chain: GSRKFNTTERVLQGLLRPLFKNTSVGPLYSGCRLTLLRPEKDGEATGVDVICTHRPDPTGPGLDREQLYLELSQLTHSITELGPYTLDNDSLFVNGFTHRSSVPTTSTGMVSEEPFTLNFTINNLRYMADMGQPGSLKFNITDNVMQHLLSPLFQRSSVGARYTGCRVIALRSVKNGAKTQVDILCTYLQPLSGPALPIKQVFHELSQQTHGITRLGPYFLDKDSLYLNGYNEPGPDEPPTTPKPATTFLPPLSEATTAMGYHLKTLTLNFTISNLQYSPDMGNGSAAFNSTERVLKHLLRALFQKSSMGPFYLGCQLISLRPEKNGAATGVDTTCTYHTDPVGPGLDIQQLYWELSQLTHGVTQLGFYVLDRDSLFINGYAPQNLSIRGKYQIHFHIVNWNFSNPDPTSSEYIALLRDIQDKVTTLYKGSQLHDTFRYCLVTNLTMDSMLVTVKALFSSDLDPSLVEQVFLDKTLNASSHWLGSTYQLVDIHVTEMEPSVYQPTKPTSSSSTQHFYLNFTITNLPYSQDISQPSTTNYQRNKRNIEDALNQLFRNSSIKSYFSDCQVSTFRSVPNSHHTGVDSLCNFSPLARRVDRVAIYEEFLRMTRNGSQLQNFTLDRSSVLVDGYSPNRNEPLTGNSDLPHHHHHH
Test: BLI (ForteBio Octet RED96), antibody on AHC sensor, 1:1 model

B1: humanized anti-MUC16 antibody Hu-L4H7 (antibody, human IgG1, kappa, L234A L235A, V domains shown)
VH: QVQLVQSGAEVKKPGASVKVSCKASGYTFTDYNIHWVRQAPGQGLEWMGYIYPYNGVSDYNQNFKSRVTMTTDTSTSTAYMELRSLRSDDTAVYYCARWDFGSGYYFDYWGQGTLVTVSS
VL: EIVLTQSPATLSLSPGERATLSCRASSSVIYMSWYQQKPGQAPRLLIYGTSTLASGIPARFSGSGSGTDFTLTISSLEPEDFAVYYCQQWSSNPFTFGQGTKLEIKR
notes: human IgG1 with L234A, L235A, D265A, P329A and kappa; Biotinylated in the CA125 ELISA; also called humanized MUC-16 antibody
- Kd: 1.04 nM
- koff: 0.000263 s⁻¹
- kon: 254000 M⁻¹ s⁻¹
